From paper PMC2063677 come the findings set out here.

One data set deals with T1, IMP KH3 (Drosophila melanogaster, UniProt Q8IR99 301-396).
T1 sequence: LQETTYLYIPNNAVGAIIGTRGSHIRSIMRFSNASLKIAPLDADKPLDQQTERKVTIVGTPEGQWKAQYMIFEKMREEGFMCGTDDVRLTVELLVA
Put plainly: filter binding.

The next data set addresses T2, IMP full length (Drosophila melanogaster, UniProt Q8IR99 1-573).
T2 sequence: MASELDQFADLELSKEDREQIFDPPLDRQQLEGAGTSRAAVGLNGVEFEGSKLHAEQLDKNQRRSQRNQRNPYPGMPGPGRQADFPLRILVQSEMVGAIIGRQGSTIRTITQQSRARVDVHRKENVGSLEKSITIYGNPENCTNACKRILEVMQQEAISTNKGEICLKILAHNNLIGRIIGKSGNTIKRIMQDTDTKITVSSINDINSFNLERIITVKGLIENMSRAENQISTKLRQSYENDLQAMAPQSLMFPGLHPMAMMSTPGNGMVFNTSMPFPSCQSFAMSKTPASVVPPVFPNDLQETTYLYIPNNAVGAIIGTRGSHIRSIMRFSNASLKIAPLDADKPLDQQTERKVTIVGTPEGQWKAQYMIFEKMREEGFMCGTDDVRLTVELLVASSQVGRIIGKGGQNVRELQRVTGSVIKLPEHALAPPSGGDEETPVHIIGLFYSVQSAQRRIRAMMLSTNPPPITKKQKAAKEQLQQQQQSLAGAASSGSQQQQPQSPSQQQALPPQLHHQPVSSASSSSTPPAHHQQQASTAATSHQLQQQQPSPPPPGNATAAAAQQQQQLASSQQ
In words: filter binding.

B1: 3x 4-12-13 WT (UUUAU) (ssRNA)
RNA: GUUUUUAUUAUUUUUAUUUUUUCAACUUUUUAUUAUUUUUAUUUUUUCAACUUUUUAUUAUUUUUAUUUUUUCAAC
With B1, the binding result in the data set with IMP KH3 and with IMP full length was “binds” throughout.
